The source of these data is article PMC10397247.

What all share (assay): two-hybrid library CCNG1;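 also: natural log of median RNA to DNA barcode read ratio; higher means stronger binding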
Assay [1] concerns the target T1, 4H496-bH.
T1 chain: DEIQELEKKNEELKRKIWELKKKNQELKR

In assay [2] the target is T2, 4H3632-bH.
T2 chain: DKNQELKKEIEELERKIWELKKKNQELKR

Assay [3] deals with T3, 4H3632-bN.
T3 chain: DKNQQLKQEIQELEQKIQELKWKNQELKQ

Assay [4] has as its target T4, 4H342-bN.
T4 chain: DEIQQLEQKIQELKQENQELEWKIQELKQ

The target of assay [5] is T5, 4H491-bN.
T5 chain: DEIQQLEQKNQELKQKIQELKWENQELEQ

The target of assay [6] is T6, 4H48-bN.
T6 chain: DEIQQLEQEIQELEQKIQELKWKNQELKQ

The target in assay [7] is T7, 4H4001-bN.
T7 chain: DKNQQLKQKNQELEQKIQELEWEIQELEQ

Assay [8] concerns the target T8, 4H496-bN.
T8 chain: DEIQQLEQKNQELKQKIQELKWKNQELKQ

The target in assay [9] is T9, 4H3427-bH.
T9 chain: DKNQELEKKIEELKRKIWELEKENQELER

In assay [10] the target is T10, 4H2667-bH.
T10 chain: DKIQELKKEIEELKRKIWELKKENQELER

The target of assay [11] is T11, 4H797-bH.
T11 chain: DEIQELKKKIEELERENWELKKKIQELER

In assay [12] the target is T12, 4H953-bH.
T12 chain: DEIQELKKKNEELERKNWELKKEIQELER

Assay [13] has as its target T13, 4H338-bH.
T13 chain: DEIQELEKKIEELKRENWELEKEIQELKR

Assay [14] concerns the target T14, 4H2697-bH.
T14 chain: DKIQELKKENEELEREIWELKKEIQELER

The target of assay [15] is T15, 4H3782-bH.
T15 chain: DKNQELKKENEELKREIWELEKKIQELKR

Assay [16] addresses T16, 4H462-bH.
T16 chain: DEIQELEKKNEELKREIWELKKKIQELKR

Assay [17] concerns the target T17, 4H953-bA.
T17 chain: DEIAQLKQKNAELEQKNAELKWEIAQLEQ

Assay [18] addresses T18, 4H4001-bH.
T18 chain: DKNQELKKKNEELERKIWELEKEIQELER

The target of assay [19] is T19, 4H2729-bH.
T19 chain: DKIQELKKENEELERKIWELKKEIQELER

Assay [20] has as its target T20, 4H3185-bH.
T20 chain: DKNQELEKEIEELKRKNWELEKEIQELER

For assay [21], the target named is T21, 4H331-bH.
T21 chain: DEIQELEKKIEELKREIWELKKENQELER

Assay [22] deals with T22, 4H370-bH.
T22 chain: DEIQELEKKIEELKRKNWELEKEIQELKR

The target of assay [23] is T23, 4H3189-bH.
T23 chain: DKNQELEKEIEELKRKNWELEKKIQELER

Assay [24] concerns the target T24, 4H3112-bH.
T24 chain: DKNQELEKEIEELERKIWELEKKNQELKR

The target of assay [25] is T25, 4H754-bH.
T25 chain: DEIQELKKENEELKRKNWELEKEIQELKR

The target in assay [26] is T26, 4H883-bH.
T26 chain: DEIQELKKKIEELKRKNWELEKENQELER

Assay [27] has as its target T27, 4H3855-bH.
T27 chain: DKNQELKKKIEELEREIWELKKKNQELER

Assay [28] has as its target T28, 4H2576-bH.
T28 chain: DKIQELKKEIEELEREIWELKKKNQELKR

Assay [29] concerns the target T29, 4H2610-bH.
T29 chain: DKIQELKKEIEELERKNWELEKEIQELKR

Assay [30] concerns the target T30, 4H687-bH.
T30 chain: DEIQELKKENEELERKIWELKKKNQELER

The target in assay [31] is T31, 4H2618-bH.
T31 chain: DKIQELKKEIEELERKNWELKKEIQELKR

The target in assay [32] is T32, 4H568-bH.
T32 chain: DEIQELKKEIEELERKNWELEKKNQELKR

Assay [33] has as its target T33, 4H918-bA.
T33 chain: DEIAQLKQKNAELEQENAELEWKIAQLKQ

Assay [34] addresses T34, 4H72-bH.
T34 chain: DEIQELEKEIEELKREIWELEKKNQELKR

Assay [35] addresses T35, 4H454-bH.
T35 chain: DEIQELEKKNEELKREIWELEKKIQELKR

The target of assay [36] is T36, 4H607-bH.
T36 chain: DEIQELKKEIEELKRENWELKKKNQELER

Assay [37] has as its target T37, 4H967-bH.
T37 chain: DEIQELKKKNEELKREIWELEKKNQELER

The target in assay [38] is T38, 4H918-bH.
T38 chain: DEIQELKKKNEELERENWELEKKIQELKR

Assay [39] concerns the target T39, 4H3606-bH.
T39 chain: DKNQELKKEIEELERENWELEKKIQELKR

For assay [40], the target named is T40, 4H3354-bH.
T40 chain: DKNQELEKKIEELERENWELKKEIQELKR

The target in assay [41] is T41, 4H908-bH.
T41 chain: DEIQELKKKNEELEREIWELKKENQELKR

In assay [42] the target is T42, 4H3843-bH.
T42 chain: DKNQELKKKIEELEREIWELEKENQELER

Assay [43] has as its target T43, 4H717-bH.
T43 chain: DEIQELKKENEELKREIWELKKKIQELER

Assay [44] deals with T44, 4H3961-bH.
T44 chain: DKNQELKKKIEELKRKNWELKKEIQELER

The target of assay [45] is T45, 4H363-bH.
T45 chain: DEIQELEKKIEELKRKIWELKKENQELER

In assay [46] the target is T46, 4H470-bH.
T46 chain: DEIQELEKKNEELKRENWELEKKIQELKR

The target of assay [47] is T47, 4H3907-bH.
T47 chain: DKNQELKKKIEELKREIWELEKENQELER

B1: 4H3632-bH (peptide)
chain: DKNQELKKEIEELERKIWELKKKNQELKR
On to B1, for which the interaction score is -2.56 in assay [1] and -0.234 in assay [2].

B2: 4H342-bN (peptide)
chain: DEIQQLEQKIQELKQENQELEWKIQELKQ
As for B2, the interaction score in [3] was 0.807; in assay [4], 1.33; in assay [5], 1.47; in assay [6], -1.99; in assay [7], -0.0564; in assay [8], 1.56.

B3: 4H2576-bH (peptide)
chain: DKIQELKKEIEELEREIWELKKKNQELKR
Take B3: the interaction score was 1.73 in assay [9]; 0.467 in assay [10]; -0.961 in assay [11]; -0.152 in assay [12]; 0.794 in assay [13]; -0.201 in [14]. Also, the interaction score is -0.128 in [15]; 0.615 in [16]; -1.63 in [17]; 1.28 in [18]; 1.93 in assay [19]; 0.137 in assay [20]. For the same molecule, the interaction score is 1.97 in assay [21]; 1.62 in assay [22]; 0.969 in [23]; 0.913 in assay [24]; -2.65 in [25]; -0.465 in assay [26]. In addition, the interaction score in assay [27] was 0.305; in assay [28] it was 0.71; in [29], -0.788; in assay [30] it was -0.475; in assay [31] it was 1.01; in [32], 0.102. For the same molecule, the interaction score in assay [33] is -0.341; in assay [34], 0.621; in assay [35], 1.67; in [36] it was -1.37; in assay [37], -3.3; in assay [38] it was -0.721. For the same molecule, the interaction score in assay [39] is -2.37; in assay [40], -0.952; in assay [41], -1.34; in assay [42], 1.11; in assay [43], -1.86.

B4: 4H363-bH (peptide)
chain: DEIQELEKKIEELKRKIWELKKENQELER
For the molecule B4, the interaction score in assay [44] turned out to be 0.532; in [45], 1.36; in assay [46], 0.465; in assay [47] it was 1.26.
